Data published in the Human Domainome abundance scans (Beltran et al. 2025).

B1: Unconventional myosin-Ie, residues 1051 to 1108; numbered along this chain, Q12965 (parent)
chain: PQVPQCKALYAYDAQDTDELSFNANDIIDIIKEDPSGWWTGRLRGKQGLFPNNYVTKI

Variants of: B1
Test: abundance fitness (aPCA) (normalised: wild type 0, dead -1); higher = more abundant; growth selection in yeast, the domain comes from the species named
Settings: Homo sapiens

Abundance fitness: each site, then its substitutions
D34: G -0.118, F -0.332
N52: G 0.02, D -0.195, L -0.027, A 0.03, H -0.087, F 0.002, K -0.284, E 0.019, C -0.515, I -0.123
I30: S -0.992, M -0.465, L -0.077, Y -1, V 0.058, R -1.01, Q -0.891, W -0.967, N -0.85, T -0.745
G45: V -0.762, P -0.977, M -0.161, W -0.702, F -0.321, H -0.1, Q -0.149, N 0.06, I -0.639, C -0.303, R -0.337, A -0.319, E -0.058, D -0.075, L -0.416, T -0.353
P35: V -0.085, D -0.023, N -0.115, S -0.022, A -0.07, M -0.075, F -0.329, L -0.29, Q -0.018, K -0.027, I -0.144, Y -0.266, R -0.094, H -0.623, C -0.066, G -0.021, W -0.231
R44: L -0.164, M -0.179, N 0.068, C -0.139, Q -0.071, F -0.134, W -0.467, I -0.759, D -0.019, V -0.19, S -0.08, G -0.137, H -0.236, E -0.319, A -0.074, K -0.181
E33: G -0.935, W -0.819, L -0.343, H -0.758, S -0.398, Q 0.074, C -0.231, K -0.368, I -0.185, F -0.376, D -0.271, P -0.751, A -0.236, N -0.576, V -0.26, M -0.02
P51: K -0.18, Y -0.425, Q -0.438, M -0.484, L -0.198, G -0.771, H -0.264, F -0.302, W -0.143, S -0.287, D -0.114, V -0.94, R -0.026, E -0.674, A -0.341, C -0.316
F50: V -0.208, L -0.19, G -0.826, C -0.94, M -0.31, E -0.911, P -0.896, I 0.069, A -0.841, R -0.968, D -0.839, K -1.07, T -1.08, W -0.944, Y -0.831
T40: M 0.052, Q -0.075, R -0.123, Y -0.07, S -0.082, I -0.059, G -0.647, V 0.125, L -0.058, W -0.062, P -1.01, F -0.479, A -0.175, H -0.284, N -0.382, E -0.203
L43: R -0.417, C -0.267, G -0.762, I 0.062, S -0.269, K -0.453, M 0.101, N -0.331, T -0.113, Y -0.328, E -0.701, W -0.706, F 0.014, V -0.063, Q -0.621, A -0.123
W39: H -0.732, M -0.35, N -0.352, R -0.902, Y -0.074, I -0.179, E -1, D -0.819, L -0.512, G -0.453, F -0.114, A -0.374, P -0.559, K -0.677, S -0.138, C -0.316
W38: L -0.211
